The term pKd denotes the negative decadic logarithm of the Kd, by convention in mol/L. In general, pIC50 refers to −log10 of the IC50, conventionally taken in molar units.

In article PMC4707517 one finds Kd and IC50 data, which are given here for 13 substances.

pIC50, pKd: −log10 of the molar value.

Series [1] concerns the target H1FL (H1 11-193 in Table 1, i.e. residues 1-193) S19C (mouse) (UniProt P10922). Briefly: fluorescence (de)quenching. Conditions: 150 mM KCl (20 mM KCl for four-way junction and 4WJDNA), room temperature pre-incubation for competition, buffer and pH not given (HI-FI assay, ref 23).
The target of series [2] is H1 1-121 (delta72) S19C (mouse) (UniProt P10922). Briefly: FRET competition. Conditions: 150 mM KCl (20 mM KCl for four-way junction and 4WJDNA); room temperature pre-incubation for competition; buffer and pH not given (HI-FI assay, ref 23).
Series [3] has as its target H1 1-96 (delta97) S19C (mouse) (UniProt P10922). Nature of the series: FRET competition. The conditions noted are these: 150 mM KCl (20 mM KCl for four-way junction and 4WJDNA); room temperature pre-incubation for competition; buffer and pH not given (HI-FI assay, ref 23).
Series [4] addresses H1FL (H1 11-193 in Table 1, i.e. residues 1-193) S19C (mouse) (UniProt P10922). Briefly: FRET competition. Conditions: 150 mM KCl (20 mM KCl for four-way junction and 4WJDNA), room temperature pre-incubation for competition, buffer and pH not given (HI-FI assay, ref 23).
The target in series [5] is H1 1-121 (delta72) S19C (mouse) (UniProt P10922). Briefly: FRET. Conditions: internal amino-C6-dT; 150 mM KCl (20 mM KCl for four-way junction and 4WJDNA); room temperature pre-incubation for competition; buffer and pH not given (HI-FI assay, ref 23).
Series [6] concerns the target H1 1-96 (delta97) S19C (mouse) (UniProt P10922). Nature of the series: FRET. The conditions noted are these: internal amino-C6-dT; 150 mM KCl (20 mM KCl for four-way junction and 4WJDNA); room temperature pre-incubation for competition; buffer and pH not given (HI-FI assay, ref 23).
In series [7] the target is H1FL (H1 11-193 in Table 1, i.e. residues 1-193) S19C (mouse) (UniProt P10922). Nature of the series: FRET. The conditions noted are these: internal amino-C6-dT; 150 mM KCl (20 mM KCl for four-way junction and 4WJDNA); room temperature pre-incubation for competition; buffer and pH not given (HI-FI assay, ref 23).
Series [8] addresses H1 1-121 (delta72) S19C (mouse) (UniProt P10922). Nature of the series: fluorescence (de)quenching. Conditions: 150 mM KCl (20 mM KCl for four-way junction and 4WJDNA); room temperature pre-incubation for competition; buffer and pH not given (HI-FI assay, ref 23).
[9] abbreviates: histone variant H2A.Z, mouse histones.

In turn, 4WJ15 four-way junction showed a pKd in series [1] of 10.46.

In the case of 4WJDNA linear 30 bp, the pKd in series [1] is 8.43.

“AGGCCTGAGAATCCGGTGCCGAGGCCGCTCAATTGGTCGTAGACAGCTCTAGCACCGCTTAAACGCACGTACGCGCTGTCCCCCGCGTTTTAACCGCCAAGGGGATTACTCCCTAGTCTCCAGGCACGTGTCAGATATATACATCCAGGCCTTGTGTC (double strand) [A1/10 nucleosome]”: the figures for the pKd in series [2] and in series [3] were 7.36 and 6.85, respectively.

With “ATCCCTATACGCGGCCGCCCTGGAGAATCCCGGTGCCGAGGCCGCTCAATTGGTCGTAGACAGCTCTAGCACCGCTTAAACGCACGTACGCGCTGTCCCCCGCGTTTTAACCGCCAAGGGGATTACTCCCTAGTCTCCAGGCACGTGTCAGATATATACATCCGAT (double strand) [A18/1 nucleosome]”, the pKd in series [2] was 8.09; in series [3] it was 6.68; in series [4], 9.87.

Regarding “ATCTAATACTAGGACCCTATACGCGGCCGCATCGGAGAATCCCGGTGCCGAGGCCGCTCAATTGGTCGTAGACAGCTCTAGCACCGCTTAAACGCACGTACGCGCTGTCCCCCGCGTTTTAACCGCCAAGGGGATTACTCCCTAGTCTCCAGGCACGTGTCAGATATATACATCGATTGCATGTGGATCCGAATTCATATTAATGAT (double strand) [S30/30 nucleosome]”, the pKd is 8.73 in series [2], 6.91 in series [3], 10.75 in series [4] and 10.41 in series [1]. The pIC50 in series [4] (competitor of S31/30 (10 nM), 1 nM H1) is 8.43.

In turn, “ATCTAATACTAGGACCCTATACGCGGCCGCATCGGAGAATCCCGGTGCCGAGGCCGCTCAATTGGTCGTAGACAGCTCTAGCACCGCTTAAACGCACGTACGCGCTGTCCCCCGCGTTTTAACCGCCAAGGGGATTACTCCCTAGTCTCCAGGCACGTGTCAGATATATACATCGATTGCATGTGGATCCGAATTCATATTAATGAT (double strand) [S30/30-H2A.Z nucleosome]” had a pKd in series [1] (setting [9]) of 10.29.

For “CGAGCCAGGCCTGAGAATCCGGTGCCGAGGCCGCTCAATTGGTCGTAGACAGCTCTAGCACCGCTTAAACGCACGTACGCGCTGTCCCCCGCGTTTTAACCGCCAAGGGGATTACTCCCTAGTCTCCAGGCACGTGTCAGATATATACATCCAGGCCTTGTGTCG (double strand) [S7/11 nucleosome]”, the pKd in series [2] was 8.49; in series [3], 7.13; in series [4], 8.76.

Regarding “CGCATCGGAGAATCCCGGTGCCGAGGCCGCTCAATTGGTCGTAGACAGCTCTAGCACCGCTTAAACGCACGTACGCGCTGTCCCCCGCGTTTTAACCGCCAAGGGGATTACTCCCTAGTCTCCAGGCACGTGTCAGATATATACATCGATTGCATGTGGATCCGAATTCATATTAATGAT (double strand) [A3/30 nucleosome]”, the pKd in series [5] was 7.98; in series [6], 6.61; in series [7], 9.95.

As for “GATCTAATACTAGGACCCTATACGCGGCCGCATCGGAGAATCCCGGTGCCGAGGCCGCTCAATTGGTCGTAGACAGCTCTAGCACCGCTTAAACGCACGTACGCGCTGTCCCCCGCGTTTTAACCGCCAAGGGGATTACTCCCTAGTCTCCAGGCACGTGTCAGATATATACATCGATTGCATGTGGATCCGAATTCATATTAATGAT (double strand) [S31/30 nucleosome]”, the pKd in series [5] is 9.01; in series [6] it was 7.06; in series [7], 10.32.

Regarding LE-Tri trinucleosome, the pKd in series [8] is 10.33; in series [1] (stoichiometry 3 H1 per trimer), 10.34.

NLE-Tri trinucleosome: the pKd in series [8] was 10.20; in series [1] (stoichiometry 1 H1 per trimer), 10.38.

Regarding NLE-Tri-H2A.Z trinucleosome, the pKd in series [1] (setting [9]) is 10.64.

In the case of “TCGGGATACGCGGCCGCCCTGGAGAATCCCGGTGCCGAGGCCGCTCAATTGGTCGTAGACAGCTCTAGCACCGCTTAAACGCACGTACGCGCTGTCCCCCGCGTTTTAACCGCCAAGGGGATTACTCCCTAGTCTCCAGGCACGTGTCAGATATATACATCCTGTGCATGTATTGAC (double strand) [S17/13 nucleosome]”, the figures for the pKd in series [2], in series [3] and in series [4] were 9.02, 7.58 and 9.64, respectively.
